Data on three variants can be found in publication PMC6706441, “B1 oligomerization regulates PML nuclear body biogenesis and leukemogenesis” (Nature Communications, 2019).

Sequences and labels used below:
B1: full-length PML isoform IV, wild type (mammalian two-hybrid fusions) [human (by the printed UniProt code P29590-5)] / full-length PML isoform IV, wild type (mammalian two-hybrid fusions) [human (by the printed UniProt code … (parent)
chain 1: MEPAPARSPRPQQDPARPQEPTMPPPETPSEGRQPSPSPSPTERAPASEEEFQFLRCQQCQAEAKCPKLLPCLHTLCSGCLEASGMQCPICQAPWPLGADTPALDNVFFESLQRRLSVYRQIVDAQAVCTRCKESADFWCFECEQLLCAKCFEAHQWFLKHEARPLAELRNQSVREFLDGTRKTNNIFCSNPNHRTPTLTSIYCRGCSKPLCCSCALLDSSHSELKCDISAEIQQRQEELDAMTQALQEQDSAFGAVHAQMHAAVGQLGRARAETEELIRERVRQVVAHVRAQERELLEAVDARYQRDYEEMASRLGRLDAVLQRIRTGSALVQRMKCYASDQEVLDMHGFLRQALCRLRQEEPQSLQAAVRTDGFDEFKVRLQDLSSCITQGKDAAVSKKASPEAASTPRDPIDVDLPEEAERVKAQVQALGLAEAQPMAVVQSVPGAHPVPVYAFSIKGPSYGEDVSNTTTAQKRKCSQTQCPRKVIKMESEEGKEARLARSSPEQPRPSTSKAVSPPHLDGPPSPRSPVIGSEVFLPNSNHVASGAGEAEERVVVISSSEDSDAENSSSRELDDSSSESSDLQLEGPSTLRVLDENLADPQAEDRPLVFFDLKIDNESGFSWGYPHPFLI
chain 2: B1 chain 1

In this test the parent is B1. The experiment in a line: mammalian two-hybrid assay. The following applies: with full-length PML isoform IV, parent: 38, read off a plot, scale: fold change.
With chain 1 W157E, the response is 3.2. chain 1 I122P V123P: the response is 21. Turning to chain 1 F158E, the response is 2.8.
